Measured values taken from patent US20220064300A1.

Key:
[1] = biological target: Murine FcγRIIB extracellular domain (mouse) (UniProt P08101); assay: SPR, dissociation constant from binding at equilibrium on immobilized murine FcγRIIB extracellular domain, 37 °C
[2] = biological target: Murine FcγRIIB extracellular domain (mouse) (UniProt P08101); assay: SPR, binding at equilibrium, antibody injected at 37 °C over murine FcγRIIB extracellular domain amine-coupled to a CM5 chip, reference channel mouse CD200

Sequence of UniProt P08101 (P08101 30-210): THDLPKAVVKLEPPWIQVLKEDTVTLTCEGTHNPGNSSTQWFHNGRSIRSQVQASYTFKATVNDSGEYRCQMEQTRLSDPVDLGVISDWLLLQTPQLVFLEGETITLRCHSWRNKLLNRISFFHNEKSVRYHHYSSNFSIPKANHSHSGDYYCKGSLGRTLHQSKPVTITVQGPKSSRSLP

Kd [1] [µM] | Kd [2] [µM] | Substance
3.02 | 3.02 | JJ316 (anti-rat CD28 antibody, superagonistic; BD Biosciences cat #554992)
8.51 | 8.51 | chimeric Nivolumab in an extended form containing the 50-residue extension (antibody)
1.07 | 1.07 | JJ316+50 (JJ316 extended in the hinge with a 50 amino acid insertion from murine CD43) (antibody)
